Laboratory results: patent publication US20260193323

How the values were obtained:
[1] = system: T1, LEKTI Domain 6 (ct His6 tag)
T1 sequence: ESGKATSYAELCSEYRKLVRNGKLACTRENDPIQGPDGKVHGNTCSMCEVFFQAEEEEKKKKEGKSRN

[2] = system: T2, recombinantly produced LEKTI Domain 6
T2 sequence: T1 sequence

## trypsin
[1]
  trypsin activity (L-BAPNA substrate, 405 nm): recombinantly produced LEKTI Domain 6 (ct His6 tag) inhibits trypsin in vitro compared to LEKTI domains 10-15
[2]
  Trypsin activity (rate of change in the absorbance at 405 nm, L-BAPNA cleavage, per minute): LEKTI Domain 6 inhibited trypsin activity in vitro
